Kd data for three molecules are collected here from patent US20110250202A1.

Assay [1] deals with recombinant penicillin binding protein 2a (PBP2a) (Staphylococcus aureus). Kind of assay: SPR (BIACORE), rPBP2a coupled on CM5 chip, antibody flowed at 0 to 5 nM; purified antibody.
The target is the same in assay [2]. Kind of assay: SPR (BIACORE), rPBP2a coupled on CM5 chip, antibody flowed at 0 to 5 nM; culture supernatant 2.
The target is the same in assay [3]. Put plainly: SPR (BIACORE), rPBP2a coupled on CM5 chip, antibody flowed at 0 to 5 nM; culture supernatant 1.

B1: 2G7 antibody (antibody, V domains shown)
VH: EVQLQQSGAELVKPGASVKLSCTASGFNIKDYFIHWVNQRTKQGLEWIGRIDPEDGETKYAPKFQGKATLTADTTSNTADLQLSSLTSEDTAVYYCVLYYSRSFDYWGQGTTLTVSS
VL: QNVLTQSPAIMSASPGEKVTMTCSASSSVSYMHWYQQKSGTSPKRWIYDTSKLASGVPARFSGSGSGTSYSLTISSMEAEDAATYYCQQWSSNPLTFGAGTKLELKR
Regarding B1, the Kd was found to be 0.00118 nM in assay [1], 2.2e-06 nM in assay [2] and 0.000204 nM in assay [3].

B2: 3B12 antibody (antibody, V domains shown)
VH: EVQLQQSGAEFVKPGASVKLSCRVSGFNIKDYYINWVKQRTEQGLEWIGRIDPEDGETKYAPKFQGKATITADTSSNTANLHLSSLTSADTAVYYCASSGYAFAWFLYWGQGTLVTVSA
VL: DILLTQSPAILSVSPGERVSFSCRASQSIGTSIHWYQQRTNGSPRLLIKYASESISGIPSRFSGSGSGTDFTLSINSVESEDIADYYCQQSNRWPFTFGSGTKLEIKR
Take B2: the Kd in assay [1] amounted to 0.176 nM; in assay [2] it was 6.05 nM; in assay [3] it was 4.85 nM.

B3: 2B2 antibody (antibody, V domains shown)
VH: VQLQQSGAEFVKRPGASVKLSCRVSGFNIKDYYINWVKQRTEQGLEWIGRIDPEDGETKYAPKFQGKATITADTSSNTANLHLSSLTSADTAVYYCASSGYAFAWFLYWGQGTLVTVSA
VL: B2 VL
Take B3: the equilibrium dissociation constant (Kd) in assay [1] amounted to 0.359 nM; in assay [2], 2.15 nM.
